In paper doi:10.1101/2022.08.26.505501 (bioRxiv, 2022):

T1: His-Pcc1 co-expressed with no-tagged SisKae1 (Saccharolobus islandicus REY15A, UniProt F0NF65 1-91)
T1 sequence (looked up): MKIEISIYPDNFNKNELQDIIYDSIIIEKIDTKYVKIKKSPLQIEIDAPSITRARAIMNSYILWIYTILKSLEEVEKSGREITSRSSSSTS

T2: co-expressed Kae1-Pcc1 subcomplex (2Kae1:2Pcc1) (Saccharolobus islandicus REY15A, UniProt F0NFC9 1-331; F0NF65 1-91)
T2 sequence (looked up) 1: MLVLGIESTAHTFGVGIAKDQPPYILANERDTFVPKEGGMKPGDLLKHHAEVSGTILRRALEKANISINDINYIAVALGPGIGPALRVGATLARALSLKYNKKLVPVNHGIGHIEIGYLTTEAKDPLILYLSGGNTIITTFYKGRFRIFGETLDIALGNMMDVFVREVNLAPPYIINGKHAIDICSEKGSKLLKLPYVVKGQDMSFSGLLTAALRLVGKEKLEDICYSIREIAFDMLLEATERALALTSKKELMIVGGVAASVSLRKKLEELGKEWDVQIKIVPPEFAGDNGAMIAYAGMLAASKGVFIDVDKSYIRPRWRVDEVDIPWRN
T2 sequence (looked up) 2: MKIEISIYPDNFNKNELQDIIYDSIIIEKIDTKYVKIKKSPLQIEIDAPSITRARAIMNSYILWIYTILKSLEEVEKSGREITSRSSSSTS

B1: no-tagged SisKae1 (enzyme, Saccharolobus islandicus REY15A, UniProt F0NFC9 1-331, looked up)
chain: MLVLGIESTAHTFGVGIAKDQPPYILANERDTFVPKEGGMKPGDLLKHHAEVSGTILRRALEKANISINDINYIAVALGPGIGPALRVGATLARALSLKYNKKLVPVNHGIGHIEIGYLTTEAKDPLILYLSGGNTIITTFYKGRFRIFGETLDIALGNMMDVFVREVNLAPPYIINGKHAIDICSEKGSKLLKLPYVVKGQDMSFSGLLTAALRLVGKEKLEDICYSIREIAFDMLLEATERALALTSKKELMIVGGVAASVSLRKKLEELGKEWDVQIKIVPPEFAGDNGAMIAYAGMLAASKGVFIDVDKSYIRPRWRVDEVDIPWRN
B2: His-SisPcc1-like (natural protein, Saccharolobus islandicus REY15A, UniProt F0NIH8 1-81, looked up)
chain: MIELRILSEHEDAELIIRSLNVDNVNLPEGMSIQTKVEGKELEIVIKMRITKPNDLMTVRNTADEILAHIKALQSSFDAIS

How the values were obtained:
Assay in all cases: SEC
[1] = molecular target: T1, His-Pcc1 co-expressed with no-tagged …
[2] = molecular target: T2, co-expressed Kae1-Pcc1 subcomplex …
[3] = molecular target: B1
[4] = molecular target: Flag-tagged SisKae1 co-expressed with His-tagged SisPcc1-like (Saccharolobus islandicus REY15A)

Binder | stoichiometry N [1] | stoichiometry N [2] | stoichiometry N [3] | stoichiometry N (Pcc1-like per Kae1) [4]
B1 | 1 Kae1:Pcc1 (2:2) | – | – | –
B2 | – | 1 Kae1:Pcc1:Pcc1-like (1:1:1) | 1 Kae1:Pcc1-like (1:1) | 2
